The values below come from paper PMC5037330, “Large-Scale Movements of IF3 and tRNA during Bacterial Translation Initiation” (Cell, 2016).

The target in the experiment is T1, IF3 Thermus thermophilus (Thermus thermophilus, UniProt Q5SKU2 1-171).
T1 construct: Translation initiation factor IF3 of Thermus thermophilus; residues 3 to 170 were modelled (N-terminal domain, helical linker, C-terminal domain); also called initiation factor 3; NTD; source: E. coli BL21(DE3), purified (same protocol as IF1: 65°C heat step, ion exchange, hydroxylapatite)
T1 sequence: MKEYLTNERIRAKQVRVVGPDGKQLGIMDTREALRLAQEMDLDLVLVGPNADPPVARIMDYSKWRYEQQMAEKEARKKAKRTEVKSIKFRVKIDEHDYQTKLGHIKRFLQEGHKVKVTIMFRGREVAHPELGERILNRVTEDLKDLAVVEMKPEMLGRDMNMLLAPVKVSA
Put plainly: cryo-EM structure; Sample 1 (without IF2): T. thermophilus 30S, IF1, IF3, mRNA and fMet-tRNA mixed 1:4:4:3:3, complex at 120 nM, 5 mM HEPES pH 7.5, 10 mM MgAc, 50 mM KCl, 10 mM NH4Cl, 6 mM 2-mercaptoethanol; put on grids without further purification; classes PIC-1A to PIC-4. The conditions noted are these: both partners purified.

B1: IF1 Thermus thermophilus (natural protein)
chain: MAKEKDTIRTEGVVTEALPNATFRVKLDSGPEILAYISGKMRMHYIRILPGDRVVVEITPYDPTRGRIVYRK
notes: Translation initiation factor IF1 of Thermus thermophilus, expressed as in Carter et al., 2001; also called initiation factor 1; source: E. coli BL21(DE3), purified (65°C heat step, ion exchange, hydroxylapatite)
In the case of B1, the binding result is listed as “binds”.
